# Assay results: the supplement of paper PMC5998384
# Experiments:
# HeLa Kyoto [1] = experiment: solubility change mitosis vs G1/S (difference of NP-40 vs SDS log2 ratios) (log2 ratio difference); higher = more soluble in mitosis
# HeLa Kyoto [2] = experiment: solubility in G1/S (NP-40 vs SDS abundance) (log2 ratio); higher = more soluble; settings: cell cycle stage: G1/S
# 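For solubility change mitosis vs G1/S (difference of NP-40 vs SDS log2 ratios) in this document: synchronized HeLa Kyoto cells (double thymidine block for G1/S, nocodazole release for mitosis), protein amounts in NP-40 versus SDS lysates quantified by mass spectrometry, three biological replicates.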
# 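For solubility in G1/S (NP-40 vs SDS abundance) in this document: HeLa Kyoto cells arrested at G1/S by double thymidine block, proteins quantified by TMT10plex mass spectrometry in mild NP-40 versus SDS extracts, three biological replicates.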
Sequence,solubility change mitosis (log2) (HeLa Kyoto [1]),solubility in G1/S (log2) (HeLa Kyoto [2])
MSGTSKESLGHGGLPGLGKTCLTTMDTKLNMLNEKVDQLLHFQEDVTEKLQSMCRDMGHLERGLHRLEASRAPGPGGADGVPHIDTQAGWPEVLELVRAMQQDAAQHGARLEALFRMVAAVDRAIALVGATFQKSKVADFLMQGRVPWRRGSPGDSPEENKERVEEEGGKPKHVLSTSGVQSDAREPGEESQKADVLEGTAERLPPIRASGLGADPAQAVVSPGQGDGVPGPAQAFPGHLPLPTKVEAKAPETPSENLRTGLELAPAPGRVNVVSPSLEVAPGAGQGASSSRPDPEPLEEGTRLTPGPGPQCPGPPGLPAQARATHSGGETPPRISIHIQEMDTPGEMLMTGRGSLGPTLTTEAPAAAQPGKQGPPGTGRCLQAPGTEPGEQTPEGARELSPLQESSSPGGVKAEEEQRAGAEPGTRPSLARSDDNDHEVGALGLQQGKSPGAGNPEPEQDCAARAPVRAEAVRRMPPGAEAGSVVLDDSPAPPAPFEHRVVSVKETSISAGYEVCQHEVLGGGRFGQVHRCTEKSTGLPLAAKIIKVKSAKDREDVKNEINIMNQLSHVNLIQLYDAFESKHSCTLVMEYVDGGELFDRITDEKYHLTELDVVLFTRQICEGVHYLHQHYILHLDLKPENILCVNQTGHQIKIIDFGLARRYKPREKLKVNFGTPEFLAPEVVNYEFVSFPTDMWSVGVITYMLLSGLSPFLGETDAETMNFIVNCSWDFDADTFEGLSEEAKDFVSRLLVKEKSCRMSATQCLKHEWLNNLPAKASRSKTRLKSQLLLQKYIAQRKWKKHFYVVTAANRLRKFPTSP [MYLK3],-0.0471,-0.00349
MSKKKGLSAEEKRTRMMEIFSETKDVFQLKDLEKIAPKEKGITAMSVKEVLQSLVDDGMVDCERIGTSNYYWAFPSKALHARKHKLEVLESQLSEGSQKHASLQKSIEKAKIGRCETEERTRLAKELSSLRDQREQLKAEVEKYKDCDPQVVEEIRQANKVAKEAANRWTDNIFAIKSWAKRKFGFEENKIDRTFGIPEDFDYID [MND1],-0.05,0.61
MSKLPRELTRDLERSLPAVASLGSSLSHSQSLSSHLLPPPEKRRAISDVRRTFCLFVTFDLLFISLLWIIELNTNTGIRKNLEQEIIQYNFKTSFFDIFVLAFFRFSGLLLGYAVLRLRHWWVIAVTTLVSSAFLIVKVILSELLSKGAFGYLLPIVSFVLAWLETWFLDFKVLPQEAEEERWYLAAQVAVARGPLLFSGALSEGQFYSPPESFAGSDNESDEEVAGKKSFSAQEREYIRQGKEATAVVDQILAQEENWKFEKNNEYGDTVYTIEVPFHGKTFILKTFLPCPAELVYQEVILQPERMVLWNKTVTACQILQRVEDNTLISYDVSAGAAGGVVSPRDFVNVRRIERRRDRYLSSGIATSHSAKPPTHKYVRGENGPGGFIVLKSASNPRVCTFVWILNTDLKGRLPRYLIHQSLAATMFEFAFHLRQRISELGARA [STARD3],-0.178,-0.0414
MSLALRSELVVDKTKRKKRRELSEEQKQEIKDAFELFDTDKDEAIDYHELKVAMRALGFDVKKADVLKILKDYDREATGKITFEDFNEVVTDWILERDPHEEILKAFKLFDDDDSGKISLRNLRRVARELGENMSDEELRAMIEEFDKDGDGEINQEEFIAIMTGDI [CETN3],0.0873,0.133
MSQGPPTGESSEPEAKVLHTKRLYRAVVEAVHRLDLILCNKTAYQEVFKPENISLRNKLRELCVKLMFLHPVDYGRKAEELLWRKVYYEVIQLIKTNKKHIHSRSTLECAYRTHLVAGIGFYQHLLLYIQSHYQLELQCCIDWTHVTDPLIGCKKPVSASGKEMDWAQMACHRCLVYLGDLSRYQNELAGVDTELLAERFYYQALSVAPQIGMPFNQLGTLAGSKYYNVEAMYCYLRCIQSEVSFEGAYGNLKRLYDKAAKMYHQLKKCETRKLSPGKKRCKDIKRLLVNFMYLQSLLQPKSSSVDSELTSLCQSVLEDFNLCLFYLPSSPNLSLASEDEEEYESGYAFLPDLLIFQMVIICLMCVHSLERAGSKQYSAAIAFTLALFSHLVNHVNIRLQAELEEGENPVPAFQSDGTDEPESKEPVEKEEEPDPEPPPVTPQVGEGRKSRKFSRLSCLRRRRHPPKVGDDSDLSEGFESDSSHDSARASEGSDSGSDKSLEGGGTAFDAETDSEMNSQESRSDLEDMEEEEGTRSPTLEPPRGRSEAPDSLNGPLGPSEASIASNLQAMSTQMFQTKRCFRLAPTFSNLLLQPTTNPHTSASHRPCVNGDVDKPSEPASEEGSESEGSESSGRSCRNERSIQEKLQVLMAEGLLPAVKVFLDWLRTNPDLIIVCAQSSQSLWNRLSVLLNLLPAAGELQESGLALCPEVQDLLEGCELPDLPSSLLLPEDMALRNLPPLRAAHRRFNFDTDRPLLSTLEESVVRICCIRSFGHFIARLQGSILQFNPEVGIFVSIAQSEQESLLQQAQAQFRMAQEEARRNRLMRDMAQLRLQLEVSQLEGSLQQPKAQSAMSPYLVPDTQALCHHLPVIRQLATSGRFIVIIPRTVIDGLDLLKKEHPGARDGIRYLEAEFKKGNRYIRCQKEVGKSFERHKLKRQDADAWTLYKILDSCKQLTLAQGAGEEDPSGMVTIITGLPLDNPSVLSGPMQAALQAAAHASVDIKNVLDFYKQWKEIG [SMG5],-0.207,-0.176
MSRKISKESKKVNISSSLESEDISLETTVPTDDISSSEEREGKVRITRQLIERKELLHNIQLLKIELSQKTMMIDNLKVDYLTKIEELEEKLNDALHQKQLLTLRLDNQLAFQQKDASKYQELMKQEMETILLRQKQLEETNLQLREKAGDVRRNLRDFELTEEQYIKLKAFPEDQLSIPEYVSVRFYELVNPLRKEICELQVKKNILAEELSTNKNQLKQLTETYEEDRKNYSEVQIRCQRLALELADTKQLIQQGDYRQENYDKVKSERDALEQEVIELRRKHEILEASHMIQTKERSELSKEVVTLEQTVTLLQKDKEYLNRQNMELSVRCAHEEDRLERLQAQLEESKKAREEMYEKYVASRDHYKTEYENKLHDELEQIRLKTNQEIDQLRNASREMYERENRNLREARDNAVAEKERAVMAEKDALEKHDQLLDRYRELQLSTESKVTEFLHQSKLKSFESERVQLLQEETARNLTQCQLECEKYQKKLEVLTKEFYSLQASSEKRITELQAQNSEHQARLDIYEKLEKELDEIIMQTAEIENEDEAERVLFSYGYGANVPTTAKRRLKQSVHLARRVLQLEKQNSLILKDLEHRKDQVTQLSQELDRANSLLNQTQQPYRYLIESVRQRDSKIDSLTESIAQLEKDVSNLNKEKSALLQTKNQMALDLEQLLNHREELAAMKQILVKMHSKHSENSLLLTKTEPKHVTENQKSKTLNVPKEHEDNIFTPKPTLFTKKEAPEWSKKQKMKT [PIBF1],0.297,0.069
MSRRPCSCALRPPRCSCSASPSAVTAAGRPRPSDSCKEESSTLSVKMKCDFNCNHVHSGLKLVKPDDIGRLVSYTPAYLEGSCKDCIKDYERLSCIGSPIVSPRIVQLETESKRLHNKENQHVQQTLNSTNEIEALETSRLYEDSGYSSFSLQSGLSEHEEGSLLEENFGDSLQSCLLQIQSPDQYPNKNLLPVLHFEKVVCSTLKKNAKRNPKVDREMLKEIIARGNFRLQNIIGRKMGLECVDILSELFRRGLRHVLATILAQLSDMDLINVSKVSTTWKKILEDDKGAFQLYSKAIQRVTENNNKFSPHASTREYVMFRTPLASVQKSAAQTSLKKDAQTKLSNQGDQKGSTYSRHNEFSEVAKTLKKNESLKACIRCNSPAKYDCYLQRATCKREGCGFDYCTKCLCNYHTTKDCSDGKLLKASCKIGPLPGTKKSKKNLRRL [FBXO5],0.249,0.273
MSSEESYRAILRYLTNEREPYAPGTEGNVKRKIRKAAACYVVRGGTLYYQRRQRHRKTFAELEVVLQPERRRDLIEAAHLGPGGTHHTRHQTWHYLSKTYWWRGILKQVKDYIKQCSKCQEKLDRSRPISDVSEMLEELGLDLESGEESNESEDDLSNFTSSPTTASKPAKKKPVSKHELVFVDTKGVVKRSSPKHCQAVLKQLNEQRLSNQFCDVTLLIEGEEYKAHKSVLSANSEYFRDLFIEKGAVSSHEAVVDLSGFCKASFLPLLEFAYTSVLSFDFCSMADVAILARHLFMSEVLEICESVHKLMEEKQLTVYKKGEVQTVASTQDLRVQNGGTAPPVASSEGTTTSLPTELGDCEIVLLVNGELPEAEQNGEVGRQPEPQVSSEAESALSSVGCIADSHPEMESVDLITKNNQTELETSNNRENNTVSNIHPKLSKENVISSSPEDSGMGNDISAEDICAEDIPKHRQKVDQPLKDQENLVASTAKTDFGPDDDTYRSRLRQRSVNEGAYIRLHKGMEKKLQKRKAVPKSAVQQVAQKLVQRGKKMKQPKRDAKENTEEASHKCGECGMVFQRRYALIMHKLKHERARDYKCPLCKKQFQYSASLRAHLIRHTRKDAPSSSSSNSTSNEASGTSSEKGRTKREFICSICGRTLPKLYSLRIHMLKHTGVKPHACQVCGKTFIYKHGLKLHQSLHQSQKQFQCELCVKSFVTKRSLQEHMSIHTGESKYLCSVCGKSFHRGSGLSKHFKKHQPKPEVRGYHCTQCEKSFFEARDLRQHMNKHLGVKPFQCQFCDKCYSWKKDWYSHVKSHSVTEPYRCNICGKEFYEKALFRRHVKKATHGKKGRAKQNLERVCEKCGRKFTQLREYRRHMNNHEGVKPFECLTCGVAWADARSLKRHVRTHTGERPYVCPVCSEAYIDARTLRKHMTKFHRDYVPCKIMLEKDTLQFHNQGTQVAHAVSILTAGMQEQESSGPQELETVVVTGETMEALEAVAATEEYPSVSTLSDQSIMQVVNYVLAQQQGQKLSEVAEAIQTVKVEVAHISGGE [ZBTB11],0.267,-0.621
MSSGLWSQEKVTSPYWEERIFYLLLQECSVTDKQTQKLLKVPKGSIGQYIQDRSVGHSRIPSAKGKKNQIGLKILEQPHAVLFVDEKDVVEINEKFTELLLAITNCEERFSLFKNRNRLSKGLQIDVGCPVKVQLRSGEEKFPGVVRFRGPLLAERTVSGIFFGVELLEEGRGQGFTDGVYQGKQLFQCDEDCGVFVALDKLELIEDDDTALESDYAGPGDTMQVELPPLEINSRVSLKVGETIESGTVIFCDVLPGKESLGYFVGVDMDNPIGNWDGRFDGVQLCSFACVESTILLHINDIIPALSESVTQERRPPKLAFMSRGVGDKGSSSHNKPKATGSTSDPGNRNRSELFYTLNGSSVDSQPQSKSKNTWYIDEVAEDPAKSLTEISTDFDRSSPPLQPPPVNSLTTENRFHSLPFSLTKMPNTNGSIGHSPLSLSAQSVMEELNTAPVQESPPLAMPPGNSHGLEVGSLAEVKENPPFYGVIRWIGQPPGLNEVLAGLELEDECAGCTDGTFRGTRYFTCALKKALFVKLKSCRPDSRFASLQPVSNQIERCNSLAFGGYLSEVVEENTPPKMEKEGLEIMIGKKKGIQGHYNSCYLDSTLFCLFAFSSVLDTVLLRPKEKNDVEYYSETQELLRTEIVNPLRIYGYVCATKIMKLRKILEKVEAASGFTSEEKDPEEFLNILFHHILRVEPLLKIRSAGQKVQDCYFYQIFMEKNEKVGVPTIQQLLEWSFINSNLKFAEAPSCLIIQMPRFGKDFKLFKKIFPSLELNITDLLEDTPRQCRICGGLAMYECRECYDDPDISAGKIKQFCKTCNTQVHLHPKRLNHKYNPVSLPKDLPDWDWRHGCIPCQNMELFAVLCIETSHYVAFVKYGKDDSAWLFFDSMADRDGGQNGFNIPQVTPCPEVGEYLKMSLEDLHSLDSRRIQGCARRLLCDAYMCMYQSPTMSLYK,-0.178,0.0441
MSSIKHLVYAVIRFLREQSQMDTYTSDEQESLEVAIQCLETVFKISPEDTHLAVSQPLTEMFTSSFCKNDVLPLSNSVPEDVGKADQLKDEGNNHMKEENYAAAVDCYTQAIELDPNNAVYYCNRAAAQSKLGHYTDAIKDCEKAIAIDSKYSKAYGRMGLALTALNKFEEAVTSYQKALDLDPENDSYKSNLKIAEQKLREVSSPTGTGLSFDMASLINNPAFISMAASLMQNPQVQQLMSGMMTNAIGGPAAGVGGLTDLSSLIQAGQQFAQQIQQQNPELIEQLRNHIRSRSFSSSAEEHS [SGTB],0.321,0.092
